Measured values as given in patent publication US20170283457A1 (YEDA RESEARCH AND DEVELOPMENT, published 2017).

B1: Importin7 (receptor, UniProt O95373 1-1038, looked up)
chain: MDPNTIIEALRGTMDPALREAAERQLNEAHKSLNFVSTLLQITMSEQLDLPVRQAGVIYLKNMITQYWPDRETAPGDISPYTIPEEDRHCIRENIVEAIIHSPELIRVQLTTCIHHIIKHDYPSRWTAIVDKIGFYLQSDNSACWLGILLCLYQLVKNYEYKKPEERSPLVAAMQHFLPVLKDRFIQLLSDQSDQSVLIQKQIFKIFYALVQYTLPLELINQQNLTEWIEILKTVVNRDVPNETLQVEEDDRPELPWWKCKKWALHILARLFERYGSPGNVSKEYNEFAEVFLKAFAVGVQQVLLKVLYQYKEKQYMAPRVLQQTLNYINQGVSHALTWKNLKPHIQGIIQDVIFPLMCYTDADEELWQEDPYEYIRMKFDVFEDFISPTTAAQTLLFTACSKRKEVLQKTMGFCYQILTEPNADPRKKDGALHMIGSLAEILLKKKIYKDQMEYMLQNHVFPLFSSELGYMRARACWVLHYFCEVKFKSDQNLQTALELTRRCLIDDREMPVKVEAAIALQVLISNQEKAKEYITPFIRPVMQALLHIIRETENDDLTNVIQKMICEYSEEVTPIAVEMTQHLAMTFNQVIQTGPDEEGSDDKAVTAMGILNTIDTLLSVVEDHKEITQQLEGICLQVIGTVLQQHVLEFYEEIFSLAHSLTCQQVSPQMWQLLPLVFEVFQQDGFDYFTDMMPLLHNYVTVDTDTLLSDTKYLEMIYSMCKKVLTGVAGEDAECHAAKLLEVIILQCKGRGIDQCIPLFVEAALERLTREVKTSELRTMCLQVAIAALYYNPHLLLNTLENLRFPNNVEPVTNHFITQWLNDVDCFLGLHDRKMCVLGLCALIDMEQIPQVLNQVSGQILPAFILLFNGLKRAYACHAEHENDSDDDDEAEDDDETEELGSDEDDIDEDGQEYLEILAKQAGEDGDDEDWEEDDAEETALEGYSTIIDDEDNPVDEYQIFKAIFQTIQNRNPVWYQALTHGLNEEQRKQLQDIATLADQRRAAHESKMIEKHGGYKFSAPVVPSSFNFGGPAPGMN
notes: Endogenous protein; also called Imp7; RANBP7
B2: GST-p38β (enzyme, UniProt Q15759 1-364, looked up)
chain: MSGPRAGFYRQELNKTVWEVPQRLQGLRPVGSGAYGSVCSAYDARLRQKVAVKKLSRPFQSLIHARRTYRELRLLKHLKHENVIGLLDVFTPATSIEDFSEVYLVTTLMGADLNNIVKCQALSDEHVQFLVYQLLRGLKYIHSAGIIHRDLKPSNVAVNEDCELRILDFGLARQADEEMTGYVATRWYRAPEIMLNWMHYNQTVDIWSVGCIMAELLQGKALFPGSDYIDQLKRIMEVVGTPSPEVLAKISSEHARTYIQSLPPMPQKDLSSIFRGANPLAIDLLGRMLVLDSDQRVSAAEALAHAYFSQYHDPEDEPEAEPYDESVEAKERTLEEWKELTYQEVLSFKPPEPPKPPGSLEIEQ
notes: Made in bacteria; also called GST-p38α/β; GST-MAPK; not shown: glutathione S-transferase tag of the pGEX-2T vector (GE healthcare)
B3: p38β-GFP (enzyme, UniProt Q15759 1-364, looked up)
chain: B2 chain
notes: Overexpressed in HeLa cells; also called wt-p38β; GFP-p38β; not shown: GFP of the pEGFP-C1 vector (Clontech)

Legend:
Importin9 [1] = target: T1, Importin9 (UniProt Q96P70 2-1041); experiment: PLA, resting HeLa cells
T1 construct: Endogenous protein; also called Imp9; IMB5
Experimental: FIGS. 5A-5D illustrate that Imp3 interacts with Imp7/9-MAPK dimer in a phospho-dependent manner (A) Detecting heterodimerization of Imp3/7/9 using PLA. HeLa cells were grown on slides to 70% confluence, serum starved, and stimulated with Anisomycin (Anis, 0.5 μg/ml 15 min). Thereafter, the cells were fixed and subjected to a PLA, using the Abs indicated on top. The nuclei were detected using DAPI, and slides were visualized using a fluorescent microscope. (B) Quantification of the intensity of the signal was performed using ImageJ analysis tool. Data shown represents mean±S.E. The significance of stimulated vs NT was p<0.0005. (C) Detecting Imp3/7/9 interaction by CoIP. Serum-starved HeLa cells (0.1% FBS, 16 hrs) were treated with Anisomycin (Anis 0.5 μg/ml) or TPA (250 nM) for 15 min. Cell extracts were then subjected to a Co-IP with the Abs indicated on right. […] The beads were then washed with a washing buffer containing 150 mM NaCl, and interacting Imps were detected using Western blot analysis with the indicated Abs.
In order to examine this hypothesis, and establish a complex formation between endogenous Imp3/7/9, the present inventors monitored these possible interactions by PLA. No interaction between any of the examined Importins was detected in resting HeLa cells (FIGS. 5A, 5B). […]

Importin7 [2] = target: B1; experiment: in vitro interaction: GST-MAPK with Imp IPed from stimulated HeLa cells, Western blot
Experimental: (§1) FIGS. 3A-3B illustrate that JNK1/2 and p38α/β directly interact with either Imp7 or Imp9 but not with Imp3. (A) In vitro interaction of JNK1/2 and p38α/β with Imp3/7/9. Purified Imp3/7/9 were prepared by IP as follows: HeLa cells were grown to 70% confluence, serum starved, and then were either stimulated with Anisomycin (Anis 0.5 μg/ml, 15 min), TPA (250 nM, 15 min) or left untreated (NT). Imp3/7/9 were then IPed from the cell's extracts and extensively washed, twice with RIPA buffer and once with 0.5M LiCl. The indicated GST-MAPKs were prepared from bacteria as described under Materials and methods. To examine association, 500 ng of each GST-MAPK were incubated with 20 μl of the indicated IPed Imps in PBS (2 hrs, 4° C., with rotation). The beads were then washed with washing buffer containing 150 mM NaCl, and interacting MAPKs were detected using Western blot analysis with the indicated Abs. (B) Imp3 is not required for Imp7/9 interactions with JNK1/2 and p38α/β. HeLa cells were treated with Si RNAs of Imp3 according to the manufacturer instructions. […] Cell extracts were then subjected to Co-IP with anti Imp7 or Imp9, the interacting MAPKs were detected by Western blot with the indicated Abs. Amount of IPed Imps was detected by the indicated Abs.

Importin9 [3] = target: T1, Importin9; experiment: as above
Experimental: as §1

Importin7 [4] = target: B1; experiment: Co-IP with anti GFP Abs, transfected HeLa cells
Experimental: (§2) FIGS. 10A-10B illustrate that endogenous and overexpressed JNK1/2 and p38α/β CoIP with Imp3, 7 and 9. (A) A Co-IP screen to detect the importins interacting with JNK1/2 and p38α/β in MCF7 cells. MCF7 cells were grown on slides to 70% confluence, serums starved and then were either stimulated with Anisomycin (Anis 0.5 μg/ml, 15 min), TPA (250 nM, 15 min) or left untreated (NT). Cells extracts were then subjected to Co-IP with anti JNK1, JNK2, p38α, or p38β, and rabbit IgG as a negative control (Control). The interacting Imps or the IPed MAPKs were detected by Western blot with the indicated Imps or MAPK Abs. (B) Interaction of overexpressed MAPKs in HeLa cells. HeLa cells were transfected with either JNK2-GFP (wt-JNK2), p38ββ-GFP (wt-p38β) or GFP alone. Cells were serum starved, and then treated with Anisomycin (Anis 0.5 μg/ml, 15 min), TPA (250 nM, 15 min). Cells extracts were then subjected to a CoIP with anti GFP Abs. The interacting Imps and the loading extracts were detected using Western blot analysis with the indicated (left) Abs. The blots were developed with either NBT/BCIP or ECL. Arrows indicate interacting Imps.

Importin9 [5] = target: T1, Importin9; experiment: Co-IP with anti GFP Abs, transfected HeLa cells
Experimental: as §2

T1 sequence (Q96P70 2-1041 limits assumed): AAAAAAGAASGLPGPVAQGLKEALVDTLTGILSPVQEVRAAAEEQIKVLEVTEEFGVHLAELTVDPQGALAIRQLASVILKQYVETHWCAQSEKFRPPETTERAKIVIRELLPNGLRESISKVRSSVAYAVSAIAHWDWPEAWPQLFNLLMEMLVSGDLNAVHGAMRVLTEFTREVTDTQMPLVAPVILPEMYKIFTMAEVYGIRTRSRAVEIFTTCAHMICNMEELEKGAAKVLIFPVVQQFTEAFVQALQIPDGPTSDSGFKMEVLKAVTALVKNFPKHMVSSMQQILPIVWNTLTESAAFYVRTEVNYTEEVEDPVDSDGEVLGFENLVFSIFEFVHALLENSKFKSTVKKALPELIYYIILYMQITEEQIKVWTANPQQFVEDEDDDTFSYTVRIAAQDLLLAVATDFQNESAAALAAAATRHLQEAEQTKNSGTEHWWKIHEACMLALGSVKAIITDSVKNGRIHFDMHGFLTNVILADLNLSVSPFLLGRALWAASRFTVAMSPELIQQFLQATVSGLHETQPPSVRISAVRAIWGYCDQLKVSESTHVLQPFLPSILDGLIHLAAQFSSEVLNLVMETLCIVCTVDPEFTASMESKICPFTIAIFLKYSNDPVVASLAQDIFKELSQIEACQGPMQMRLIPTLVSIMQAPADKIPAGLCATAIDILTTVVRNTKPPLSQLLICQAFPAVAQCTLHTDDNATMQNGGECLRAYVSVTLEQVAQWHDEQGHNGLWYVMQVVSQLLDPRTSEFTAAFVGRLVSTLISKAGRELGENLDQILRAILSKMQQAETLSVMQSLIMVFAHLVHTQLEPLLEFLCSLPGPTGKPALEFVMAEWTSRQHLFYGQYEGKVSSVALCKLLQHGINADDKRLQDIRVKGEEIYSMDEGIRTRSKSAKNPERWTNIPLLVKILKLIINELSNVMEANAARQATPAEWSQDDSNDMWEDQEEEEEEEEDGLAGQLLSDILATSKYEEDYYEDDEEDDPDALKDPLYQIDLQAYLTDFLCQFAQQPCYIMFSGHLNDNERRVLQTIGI

Binder: B1
binding result (Importin9 [1]): no binding

Binder: B2
binding result (Importin7 [2]): binds
binding result (Importin9 [3]): binds

Binder: B3
binding result (Importin7 [4]): binds
binding result (Importin9 [5]): binds
